In general, pKi refers to −log10 of the Ki, conventionally taken in molar units. The low end stands for a high Ki, the high end for a low Ki.

No end group written: not given here. Where only a bound is given, the exact number is not on record here.

Test [1] deals with T1, human neuropeptide FF receptor (NPFF1) (human, UniProt Q9GZQ6 1-430). The experiment in a line: cell-based or functional assay.
The target in test [2] is T2, human NPFF2b (hNPFF2) receptor (human, UniProt Q9Y5X5 103-522). The experiment in a line: cell-based or functional assay.
T2 sequence (Q9Y5X5 103-522): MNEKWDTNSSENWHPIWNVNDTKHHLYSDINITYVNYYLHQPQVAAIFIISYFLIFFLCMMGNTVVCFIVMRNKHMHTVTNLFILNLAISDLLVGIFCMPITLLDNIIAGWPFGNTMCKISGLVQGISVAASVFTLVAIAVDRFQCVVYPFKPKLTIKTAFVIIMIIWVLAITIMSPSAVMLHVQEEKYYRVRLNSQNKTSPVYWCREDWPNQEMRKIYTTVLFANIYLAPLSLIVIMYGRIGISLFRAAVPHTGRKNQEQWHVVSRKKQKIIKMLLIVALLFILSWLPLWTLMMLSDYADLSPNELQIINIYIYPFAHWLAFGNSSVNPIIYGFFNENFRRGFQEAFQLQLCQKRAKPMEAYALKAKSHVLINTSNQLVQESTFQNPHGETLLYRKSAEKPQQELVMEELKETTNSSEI
The target of test [3] is rat spinal cord membrane receptor. In words: competition with [125I]D-Tyr-NPFF, rat spinal cord membranes.
Test [4] has as its target T3, rat neuropeptide FF receptor (NPFF2) (rat, UniProt Q9EQD2 1-417).
T3 construct: Full-length cloned receptor; Also the native receptor in rat brain sections (autoradiography); also called rat NPFF2
The experiment in a line: competition with [125I]D-Tyr-NPFF; rat NPFF2 against rat NPFF1. The text has this: (§1) Additional pharmacological evaluation was done using 293 human embryonic kidney cells (HEK-293 cells) transiently expressing the genes encoding the human NPFF1, NPFF2, and rat NPFF1 receptors, as well as Cos-7 cells expressing the rat NPFF2 receptors.

Test [5] concerns the target T2, human NPFF2b (hNPFF2) receptor. The experiment in a line: competition with [125I]D-Tyr-NPFF; human NPFF2 against human NPFF1.
Text: as §1

Test [6] concerns the target T4, rat neuropeptide FF receptor (NPFF1) (rat, UniProt Q9EP86 1-432). The experiment in a line: competition with [125I]D-Tyr-NPFF, HEK-293 cells with the cloned receptor.
Text: as §1

In test [7] the target is T1, human neuropeptide FF receptor (NPFF1). The description is as above.
Text: as §1

In test [8] the target is T2, human NPFF2b (hNPFF2) receptor. The test is described as above.
Text: as §1

In test [9] the target is T4, rat neuropeptide FF receptor (NPFF1). In words: competition with [125I]D-Tyr-NPFF, membranes of COS-7 cells with rat NPFF1. The text has this:
Cos-7 cells transiently expressing the gene encoding the novel rat NPFF1 receptor were used for pharmacological evaluation.

In test [10] the target is T3, rat neuropeptide FF receptor (NPFF2). In words: competition with [125I]D-Tyr-NPFF, cloned receptor (head: HEK-293; text: Cos-7).
Text: as §1

T1 sequence (Q9GZQ6 whole entry): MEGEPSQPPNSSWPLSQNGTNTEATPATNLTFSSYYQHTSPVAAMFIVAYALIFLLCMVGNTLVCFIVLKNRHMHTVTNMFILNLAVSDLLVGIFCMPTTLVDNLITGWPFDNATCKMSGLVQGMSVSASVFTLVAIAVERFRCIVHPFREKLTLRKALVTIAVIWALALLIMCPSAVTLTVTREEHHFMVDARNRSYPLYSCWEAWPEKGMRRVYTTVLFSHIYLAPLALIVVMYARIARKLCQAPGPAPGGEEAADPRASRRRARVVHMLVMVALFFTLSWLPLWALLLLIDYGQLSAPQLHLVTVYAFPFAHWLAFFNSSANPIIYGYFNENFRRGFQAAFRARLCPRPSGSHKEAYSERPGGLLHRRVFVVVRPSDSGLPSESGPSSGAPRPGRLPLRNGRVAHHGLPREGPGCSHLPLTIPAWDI
T4 sequence (Q9EP86 whole entry): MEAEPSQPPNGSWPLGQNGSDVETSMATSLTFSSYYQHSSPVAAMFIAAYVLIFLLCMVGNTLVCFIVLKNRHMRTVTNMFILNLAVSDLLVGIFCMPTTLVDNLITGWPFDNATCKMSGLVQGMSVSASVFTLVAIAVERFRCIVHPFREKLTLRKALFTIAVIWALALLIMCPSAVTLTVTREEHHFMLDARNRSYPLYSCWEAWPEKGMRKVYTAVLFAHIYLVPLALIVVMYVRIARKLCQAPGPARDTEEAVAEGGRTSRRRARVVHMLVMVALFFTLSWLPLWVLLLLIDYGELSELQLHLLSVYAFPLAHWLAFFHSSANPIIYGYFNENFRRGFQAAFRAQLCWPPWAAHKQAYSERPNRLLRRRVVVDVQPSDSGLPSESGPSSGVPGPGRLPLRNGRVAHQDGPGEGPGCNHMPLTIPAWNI
T3 sequence (Q9EQD2 whole entry): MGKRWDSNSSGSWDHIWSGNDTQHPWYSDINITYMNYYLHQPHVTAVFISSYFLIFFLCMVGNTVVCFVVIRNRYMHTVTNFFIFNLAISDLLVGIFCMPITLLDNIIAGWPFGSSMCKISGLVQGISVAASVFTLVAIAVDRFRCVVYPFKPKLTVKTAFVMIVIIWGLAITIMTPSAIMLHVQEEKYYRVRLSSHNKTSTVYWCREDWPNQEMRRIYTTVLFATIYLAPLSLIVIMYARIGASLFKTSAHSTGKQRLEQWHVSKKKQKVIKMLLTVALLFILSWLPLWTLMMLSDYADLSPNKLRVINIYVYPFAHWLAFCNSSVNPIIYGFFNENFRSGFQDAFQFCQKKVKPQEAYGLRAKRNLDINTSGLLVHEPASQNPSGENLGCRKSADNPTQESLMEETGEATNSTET

B1: Frog pancreatic polypeptide (frog PP) (Rana Temporaria) (peptide)
peptide: APSEPHHPGDQATQDQLAQYYSDLYQYITFVTRPRF
modifications: not fully specified; ends and bridges not checked
notes: also called fPP
B1: the “% of NPPF Response, intracellular calcium mobilization” value in [1] is 0 % of NPPF Response; in [2], 78 % of NPPF Response. Moreover, the entries for the “pEC50, intracellular calcium mobilization” value in test [1] and in test [2] were less than 5 and 6.7, respectively. In addition, the pKi in test [3] worked out at 9.12; in test [6], 5.4; in test [7], 5.9; in [8], 7.4; in [9] it was 5.5; in [10], 7.3. Moreover, the results for the “fold greater affinity than for the NPFF1 receptor” value in test [4] and in [5] were 31 fold and 77 fold, respectively.
